Results on one molecule are retold here after patent US7361735B2, “LITAF binding site peptides and methods of using the same” (Trustees of Boston University, priority 2003, dated 2008).

The subject of this experiment is wtTNFβ, TNF-α promoter from −991 to 1. As to the kind of experiment: Luciferase reporter assay, wild-type TNF-α promoter, WTK-1. The class given is cell-based. The following applies: WTK-1 cells; normalized to β-gal; LITAF overexpressed alone without LPS stimulation. From the text:
FIG. 10 is a graphical representation of the analysis of LITAF function in luciferase reporter constructs. The series of TNF-α promoter DNA fragments were subcloned into the pGL3 basic vector (Pharmacia), a promoterless and enhancerless luciferase reporter gene. One construct, named wtTNFβ, contained TNF-α promoter from −991 to 1. Another one, mtTNFβ1, was a mutant inserted with the promoter from −991 to 1, but lacking the LITAF binding site. WTK-1 cells (grown to 85% confluence) in a 6-well plate at 1.2×10^5 cells/well were co-transfected with 1 μg DNAs including pCMV-LITAF recombinant vector, pVMVβ-gal and pGL3 basic as control by Fugene 6 (Roche Molecular Biochemicals) for 3 hrs, washed with PBS twice, then individually stimulated with LPS or Chariot/peptide complex of 100 ng/ml peptide B (peptide fragment of LITAF representing aa 152-228) or HA as control for 3 hrs, washed with PBS, incubated at 37° C., 5% CO2, o/n. The β-galactosidase gene was included in all transfections. The cells were harvested and lysed approximately 12 hrs after transfection. The promoter activity from each lysate sample was measured using the luciferase reporter assay system (Promega) and normalized to β-gal expression in the same sample, as described in the methods section below.
The activation of TNF-α gene expression by LITAF was investigated. […]
In general terms: In a reporter assay the amount or activity of a reporter protein is the signal.

B1: exogenous LITAF: full-length human LITAF (SEQ ID NO. 1) overexpressed from the pCMV-LITAF recombinant vector (protein, listed as Homo sapiens)
chain: MSVPGPYQAATGPSSAPSAPPSYEETVAVNSYYPTPPAPMPGPTTGLVTGPDGKGMNPPSYYTQPAPIPNNNPITVQTVYVQHPITFLDRPIQMCCPSCNKMIVSQLSYNAGALTWLSCGSLCLLGVHSGLLLHPLLRGCPAGRGPLLSQLQSSPGHLQAFVGLSQTWREPGAAGSPFHLSSSFTPGGGSALVVSPLQGAHLHVFFWGEYVAKLTNLQTPEIAAWSRA
Consider B1, for which the “TNF-α promoter activity (luciferase), wild-type promoter/reporter plasmid” value turned out to be 2.5 fold.
